Measured values reported in article PMC11980541, “3D meshwork architecture of the outer coat protein CotE: implications for bacterial endospore sporulation and germination” (mBio, 2025).
pKd: −log10 of the molar value. Values belong to the compound of their own block, whether it stands above or below them.

How the values were obtained:
[1] = biological target: CotE (outer coat protein CotE); settings: PBS pH 7.2, 25 °C; 100 µM protein in cell, 1 mM DPA in syringe; C-terminal His-tagged trimeric mutant
[2] = biological target: wild-type CotE protein from Bacillus cereus (Bacillus cereus); assay: SEC; Superdex 200 Increase 10/300 GL, 20 mM Tris-HCl pH 8.0, no CaCl2; CotE 5 mg/mL; apparent molecular weight from a calibration curve
[3] = biological target: wild-type CotE protein from Bacillus cereus (Bacillus cereus); assay: cryo-EM structure; CotE 2 mg/mL with 5 mM CaCl2 (meshwork); C3 map of the trimer unit at 6.55 Å and C2 map of two joined trimers at 6.86 Å; AlphaFold2 trimer models fitted
[4] = biological target: wild-type CotE protein from Bacillus cereus (Bacillus cereus); assay: SEC; Superdex 200 Increase 10/300 GL, 20 mM Tris-HCl pH 8.0 with 5 mM CaCl2; CotE 5 mg/mL; apparent molecular weight from a calibration curve
[5] = biological target: W65E variant CotE protein, C-terminal His-tagged (Bacillus cereus); assay: SEC-MALS; Superdex 75 Increase 10/300 GL, 2 mg/mL protein, 20 mM Tris pH 8.0

Compound: O=C(O)c1cccc(C(=O)O)n1 [DPA, dipicolinic acid]
pKd [1]: 5.20

stoichiometry N [2]: 12
stoichiometry N [3]: 3
stoichiometry N [4]: > 100
Compound: wild-type CotE protein from Bacillus cereus (natural protein)

Compound: W65E variant CotE protein, C-terminal His-tagged (natural protein)
stoichiometry N [5]: 3
